T1: human beta-Klotho (KLB) (human, UniProt Q86Z14 53-997)
T1 construct: bought protein; also called human KLB
T1 sequence (looked up): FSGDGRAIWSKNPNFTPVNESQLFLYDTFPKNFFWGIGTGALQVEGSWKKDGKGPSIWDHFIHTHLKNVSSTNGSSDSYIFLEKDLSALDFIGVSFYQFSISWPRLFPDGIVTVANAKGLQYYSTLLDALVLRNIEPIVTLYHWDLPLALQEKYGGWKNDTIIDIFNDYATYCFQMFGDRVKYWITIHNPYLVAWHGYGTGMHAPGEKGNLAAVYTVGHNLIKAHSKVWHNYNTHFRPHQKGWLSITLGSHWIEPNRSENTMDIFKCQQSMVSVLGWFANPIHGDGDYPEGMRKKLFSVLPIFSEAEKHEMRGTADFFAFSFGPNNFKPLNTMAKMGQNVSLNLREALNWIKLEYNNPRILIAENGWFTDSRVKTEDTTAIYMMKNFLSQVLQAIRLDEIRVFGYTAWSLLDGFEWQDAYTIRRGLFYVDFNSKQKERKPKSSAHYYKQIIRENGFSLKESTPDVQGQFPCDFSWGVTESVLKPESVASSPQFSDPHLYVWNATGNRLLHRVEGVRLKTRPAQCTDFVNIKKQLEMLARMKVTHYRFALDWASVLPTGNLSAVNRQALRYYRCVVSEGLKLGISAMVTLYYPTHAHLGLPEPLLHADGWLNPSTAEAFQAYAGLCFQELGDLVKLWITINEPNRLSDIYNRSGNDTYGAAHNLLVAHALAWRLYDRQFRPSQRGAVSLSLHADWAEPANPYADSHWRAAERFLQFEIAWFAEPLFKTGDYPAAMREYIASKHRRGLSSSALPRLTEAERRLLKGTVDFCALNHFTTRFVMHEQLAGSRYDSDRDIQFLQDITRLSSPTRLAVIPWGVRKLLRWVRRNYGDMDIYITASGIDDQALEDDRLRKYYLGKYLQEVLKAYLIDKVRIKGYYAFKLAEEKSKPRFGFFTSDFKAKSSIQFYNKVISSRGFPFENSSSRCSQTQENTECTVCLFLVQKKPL


Columns and labels:
[1] = biological target: human FGFR1c + KLB receptor complex on HEK293 iLite FGF21 reporter cells (human, UniProt P11362 22-822; Q86Z14 1-1044); test: cell-based or functional assay
Chain of human FGFR1c + KLB receptor complex on HEK293 iLite FGF21 reporter cells (P11362 22-822, chain 1 of 2): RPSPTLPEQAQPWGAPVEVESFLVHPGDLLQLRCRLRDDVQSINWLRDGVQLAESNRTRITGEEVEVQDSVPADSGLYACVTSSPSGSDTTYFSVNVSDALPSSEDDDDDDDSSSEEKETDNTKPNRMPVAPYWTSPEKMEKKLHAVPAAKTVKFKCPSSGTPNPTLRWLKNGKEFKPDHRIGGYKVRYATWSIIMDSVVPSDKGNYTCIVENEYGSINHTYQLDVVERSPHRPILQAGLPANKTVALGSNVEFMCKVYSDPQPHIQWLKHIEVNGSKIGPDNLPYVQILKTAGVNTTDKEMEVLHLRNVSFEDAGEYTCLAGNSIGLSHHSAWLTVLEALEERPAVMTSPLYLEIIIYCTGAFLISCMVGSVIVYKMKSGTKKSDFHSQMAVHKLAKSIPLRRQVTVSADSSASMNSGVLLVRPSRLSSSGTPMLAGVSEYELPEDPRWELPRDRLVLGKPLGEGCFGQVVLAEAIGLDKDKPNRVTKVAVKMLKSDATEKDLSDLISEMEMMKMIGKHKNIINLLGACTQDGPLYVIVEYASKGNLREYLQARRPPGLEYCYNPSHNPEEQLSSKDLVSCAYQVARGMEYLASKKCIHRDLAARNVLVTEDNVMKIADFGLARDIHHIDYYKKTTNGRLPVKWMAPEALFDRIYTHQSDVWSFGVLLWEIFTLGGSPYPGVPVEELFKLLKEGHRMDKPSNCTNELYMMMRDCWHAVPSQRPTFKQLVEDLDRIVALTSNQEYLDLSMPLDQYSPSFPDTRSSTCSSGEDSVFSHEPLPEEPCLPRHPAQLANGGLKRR
Chain of human FGFR1c + KLB receptor complex on HEK293 iLite FGF21 reporter cells (Q86Z14 whole entry, chain 2 of 2): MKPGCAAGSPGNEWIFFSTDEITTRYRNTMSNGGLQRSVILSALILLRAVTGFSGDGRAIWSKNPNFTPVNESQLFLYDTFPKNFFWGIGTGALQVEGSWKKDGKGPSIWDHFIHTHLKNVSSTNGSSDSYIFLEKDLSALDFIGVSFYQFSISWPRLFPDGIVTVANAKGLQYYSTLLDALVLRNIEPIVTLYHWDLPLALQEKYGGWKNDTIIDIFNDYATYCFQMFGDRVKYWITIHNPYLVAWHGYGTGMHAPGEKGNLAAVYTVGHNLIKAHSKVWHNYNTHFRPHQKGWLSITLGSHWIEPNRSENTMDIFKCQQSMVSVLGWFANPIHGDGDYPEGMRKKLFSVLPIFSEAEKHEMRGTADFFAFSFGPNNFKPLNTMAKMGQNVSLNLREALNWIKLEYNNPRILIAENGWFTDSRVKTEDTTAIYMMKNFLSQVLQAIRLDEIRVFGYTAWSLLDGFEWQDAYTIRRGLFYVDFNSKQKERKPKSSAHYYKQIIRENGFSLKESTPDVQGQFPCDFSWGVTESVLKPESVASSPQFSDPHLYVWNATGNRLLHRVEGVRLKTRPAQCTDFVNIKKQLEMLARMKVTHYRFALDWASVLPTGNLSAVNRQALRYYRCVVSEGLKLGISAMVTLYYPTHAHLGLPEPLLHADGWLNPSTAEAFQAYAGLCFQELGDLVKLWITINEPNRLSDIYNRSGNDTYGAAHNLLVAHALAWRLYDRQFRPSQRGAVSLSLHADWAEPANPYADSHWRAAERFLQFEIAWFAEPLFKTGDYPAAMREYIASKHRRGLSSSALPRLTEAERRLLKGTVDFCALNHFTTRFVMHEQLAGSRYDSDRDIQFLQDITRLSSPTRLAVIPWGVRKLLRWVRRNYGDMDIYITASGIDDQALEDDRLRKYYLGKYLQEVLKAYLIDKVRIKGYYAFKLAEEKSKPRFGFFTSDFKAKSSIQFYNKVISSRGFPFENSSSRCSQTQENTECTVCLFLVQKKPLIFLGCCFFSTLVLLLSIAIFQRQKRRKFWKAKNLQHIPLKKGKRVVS

human beta-Klotho (KLB) = biological target: T1, human beta-Klotho (KLB); test: SPR;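 also: Anti-KLB antibodies captured on anti-human Fc CM5 chip, KLB injected as analyte, 180 s association and 1800 s dissociation, fitted to 1:1 binding model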

Binder | EC50 [1] | Emax [1] | koff (human beta-Klotho (KLB))
Ab0337 (antibody, IgG4, V domains shown, IgG4 PE) VH: QVTLKESGPVLVKPTETLTLTCTVSGFSLNNARVGVSWIRQPPGKALEWLAHIFSNDEKSYSTSLKSRLTISKDTSKSQVVLTMTNMDPVDTATYYCARSVVTGGYYYEGMDVWGQGTTVTVSS VL: SYVLTQPPSVSVAPGQTARITCGGSNIGSESVHWYQQKPGQAPVLVVYSHSDRPSGIPERFSGSNSGNTATLTISRVEAGDEADYYCQVWEGESDHVVFGGGTKLTVLG | 0.06 nM | 1030% | 0.00053 s⁻¹
Ab0354 (antibody, IgG4, V domains shown, IgG4 PE) VH: QVTLKESGPVLVKPTETLTLTCTVSGFSLNNARVGVSWIRQPPGKALEWLAHIFSNDEKSYSTSLKSRLTISKDTSKSQVVLTMTNMDPVDTATYYCARSVVTGGYYYEGMDVWGQGTTVTVSS VL: SYVLTQPPSVSVAPGQTARITCGGSNIGSESVHWYQQKPGQAPVLVVYEESDRPSGIPERFSGSNSGNTATLTISRVEAGDEADYYCQVWHGSSDHVVFGGGTKLTVLG | 0.07 nM | 878% | 0.00158 s⁻¹
Ab0345 (antibody, IgG4, V domains shown, IgG4 PE) VH: QVTLKESGPVLVKPTETLTLTCTVSGFSLNNARVGVSWIRQPPGKALEWLAHIFSNDEKSYSTSLKSRLTISKDTSKSQVVLTMTNMDPVDTATYYCARSVVTGGYYYEGMDVWGQGTTVTVSS VL: SYVLTQPPSVSVAPGQTARITCGGSNIGSESVHWYQQKPGQAPVLVVYAASDRPSGIPERFSGSNSGNTATLTISRVEAGDEADYYCQVWEGASDHVVFGGGTKLTVLG | 0.07 nM | 908% | 0.00188 s⁻¹
Ab0344 (antibody, IgG4, V domains shown, IgG4 PE) VH: QVTLKESGPVLVKPTETLTLTCTVSGFSLNNARVGVSWIRQPPGKALEWLAHIFSNDEKSYSTSLKSRLTISKDTSKSQVVLTMTNMDPVDTATYYCARSVVTGGYYYEGMDVWGQGTTVTVSS VL: SYVLTQPPSVSVAPGQTARITCGGSNIGSESVHWYQQKPGQAPVLVVYAASDRPSGIPERFSGSNSGNTATLTISRVEAGDEADYYCQVWEGSSDHVVFGGGTKLTVLG | 0.07 nM | 958% | 0.00168 s⁻¹
Ab0338 (antibody, IgG4, V domains shown, IgG4 PE) VH: QVTLKESGPVLVKPTETLTLTCTVSGFSLNNARVGVSWIRQPPGKALEWLAHIFSNDEKSYSTSLKSRLTISKDTSKSQVVLTMTNMDPVDTATYYCARSVVTGGYYYEGMDVWGQGTTVTVSS VL: SYVLTQPPSVSVAPGQTARITCGGSNIGSESVHWYQQKPGQAPVLVVYSSSDRPSGIPERFSGSNSGNTATLTISRVEAGDEADYYCQVWAGSSDHVVFGGGTKLTVLG | 0.06 nM | 971% | 0.000429 s⁻¹
Ab0352 (antibody, IgG4, V domains shown, IgG4 PE) VH: QVTLKESGPVLVKPTETLTLTCTVSGFSLNNARVGVSWIRQPPGKALEWLAHIFSNDEKSYSTSLKSRLTISKDTSKSQVVLTMTNMDPVDTATYYCARSVVTGGYYYEGMDVWGQGTTVTVSS VL: SYVLTQPPSVSVAPGQTARITCGGSNIGSESVHWYQQKPGQAPVLVVYEESDRPSGIPERFSGSNSGNTATLTISRVEAGDEADYYCQVWEGSSDHVVFGGGTKLTVLG | 0.07 nM | 1010% | 0.000419 s⁻¹
Ab0353 (antibody, IgG4, V domains shown, IgG4 PE) VH: QVTLKESGPVLVKPTETLTLTCTVSGFSLNNARVGVSWIRQPPGKALEWLAHIFSNDEKSYSTSLKSRLTISKDTSKSQVVLTMTNMDPVDTATYYCARSVVTGGYYYEGMDVWGQGTTVTVSS VL: SYVLTQPPSVSVAPGQTARITCGGSNIGSESVHWYQQKPGQAPVLVVYEESDRPSGIPERFSGSNSGNTATLTISRVEAGDEADYYCQVWEGASDHVVFGGGTKLTVLG | 0.08 nM | 895% | 0.00038 s⁻¹
Ab0340 (antibody, IgG4, V domains shown, IgG4 PE) VH: QVTLKESGPVLVKPTETLTLTCTVSGFSLNNARVGVSWIRQPPGKALEWLAHIFSNDEKSYSTSLKSRLTISKDTSKSQVVLTMTNMDPVDTATYYCARSVVTGGYYYEGMDVWGQGTTVTVSS VL: SYVLTQPPSVSVAPGQTARITCGGSNIGSESVHWYQQKPGQAPVLVVYAESDRPSGIPERFSGSNSGNTATLTISRVEAGDEADYYCQVWEGSSDHVVFGGGTKLTVLG | 0.05 nM | 912% | 0.00176 s⁻¹

Results, then the binder that gave them:

EC50 [1] | Emax [1] | koff (human beta-Klotho (KLB)) | Binder
0.07 nM | 829% | 0.00195 s⁻¹ | Ab0355 (antibody, IgG4, V domains shown, IgG4 PE) VH: QVTLKESGPVLVKPTETLTLTCTVSGFSLNNARVGVSWIRQPPGKALEWLAHIFSNDEKSYSTSLKSRLTISKDTSKSQVVLTMTNMDPVDTATYYCARSVVTGGYYYEGMDVWGQGTTVTVSS VL: SYVLTQPPSVSVAPGQTARITCGGSNIGSESVHWYQQKPGQAPVLVVYEYSDRPSGIPERFSGSNSGNTATLTISRVEAGDEADYYCQVWEGSSDHVVFGGGTKLTVLG
0.07 nM | 858% | 0.000454 s⁻¹ | Ab0358 (antibody, IgG4, V domains shown, IgG4 PE) VH: QVTLKESGPVLVKPTETLTLTCTVSGFSLNNARVGVSWIRQPPGKALEWLAHIFSNDEKSYSTSLKSRLTISKDTSKSQVVLTMTNMDPVDTATYYCARSVVTGGYYYEGMDVWGQGTTVTVSS VL: SYVLTQPPSVSVAPGQTARITCGGSNIGSESVHWYQQKPGQAPVLVVYEASDRPSGIPERFSGSNSGNTATLTISRVEAGDEADYYCQVWHGSSDHVVFGGGTKLTVLG
0.11 nM | 991% | 0.00169 s⁻¹ | Ab0364 (antibody, IgG4, V domains shown, IgG4 PE) VH: QVTLKESGPVLVKPTETLTLTCTVSGFSLNNARVGVSWIRQPPGKALEWLAHIFSNDEKSYSTSLKSRLTISKDTSKSQVVLTMTNMDPVDTATYYCARSVVTGGYYYEGMDVWGQGTTVTVSS VL: SYVLTQPPSVSVAPGQTARITCGGANIGSESVHWYQQKPGQAPVLVVYEESDRPSGIPERFSGSNSGNTATLTISRVEAGDEADYYCQVWEGSSDHVVFGGGTKLTVLG
0.08 nM | 845% | 0.00192 s⁻¹ | Ab0360 (antibody, IgG4, V domains shown, IgG4 PE) VH: QVTLKESGPVLVKPTETLTLTCTVSGFSLNNARVGVSWIRQPPGKALEWLAHIFSNDEKSYSTSLKSRLTISKDTSKSQVVLTMTNMDPVDTATYYCARSVVTGGYYYEGMDVWGQGTTVTVSS VL: SYVLTQPPSVSVAPGQTARITCGGSNIGSESVHWYQQKPGQAPVLVVYEHSDRPSGIPERFSGSNSGNTATLTISRVEAGDEADYYCQVWEGSSDHVVFGGGTKLTVLG
0.08 nM | 893% | 0.00185 s⁻¹ | Ab0357 (antibody, IgG4, V domains shown, IgG4 PE) VH: QVTLKESGPVLVKPTETLTLTCTVSGFSLNNARVGVSWIRQPPGKALEWLAHIFSNDEKSYSTSLKSRLTISKDTSKSQVVLTMTNMDPVDTATYYCARSVVTGGYYYEGMDVWGQGTTVTVSS VL: SYVLTQPPSVSVAPGQTARITCGGSNIGSESVHWYQQKPGQAPVLVVYEASDRPSGIPERFSGSNSGNTATLTISRVEAGDEADYYCQVWEGSSDHVVFGGGTKLTVLG
0.07 nM | 986% | 0.00163 s⁻¹ | Ab0361 (antibody, IgG4, V domains shown, IgG4 PE) VH: QVTLKESGPVLVKPTETLTLTCTVSGFSLNNARVGVSWIRQPPGKALEWLAHIFSNDEKSYSTSLKSRLTISKDTSKSQVVLTMTNMDPVDTATYYCARSVVTGGYYYEGMDVWGQGTTVTVSS VL: SYVLTQPPSVSVAPGQTARITCGGSNIGSESVHWYQQKPGQAPVLVVYESSDRPSGIPERFSGSNSGNTATLTISRVEAGDEADYYCQVWEGSSDHVVFGGGTKLTVLG

— patent publication US20220010021A1 (Sanofi, published 2022)
